The text below walks through data of IntAct's records for PubMed 25416956.

B1: Inactive peptidyl-prolyl cis-trans isomerase FKBP6 (Homo sapiens), O75344 (parent)
chain: MGGSALNQGVLEGDDAPGQSLYERLSQRMLDISGDRGVLKDVIREGAGDLVAPDASVLVKYSGYLEHMDRPFDSNYFRKTPRLMKLGEDITLWGMELGLLSMRRGELARFLFKPNYAYGTLGCPPLIPPNTTVLFEIELLDFLDCAESDKFCALSAEQQDQFPLQKVLKVAATEREFGNYLFRQNRFYDAKVRYKRALLLLRRRSAPPEEQHLVEAAKLPVLLNLSFTYLKLDRPTIALCYGEQALIIDQKNAKALFRCGQACLLLTEYQKARDFLVRAQKEQPFNHDINNELKKLASCYRDYVDKEKEMWHRMFAPCGDGSTAGES
partner: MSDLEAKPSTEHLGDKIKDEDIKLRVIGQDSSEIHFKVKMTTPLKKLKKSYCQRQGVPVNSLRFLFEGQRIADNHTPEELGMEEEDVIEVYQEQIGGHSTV
B2: Tumor necrosis factor receptor superfamily member 13B (Homo sapiens), O14836 (parent)
chain: MSGLGRSRRGGRSRVDQEERFPQGLWTGVAMRSCPEEQYWDPLLGTCMSCKTICNHQSQRTCAAFCRSLSCRKEQGKFYDHLLRDCISCASICGQHPKQCAYFCENKLRSPVNLPPELRRQRSGEVENNSDNSGRYQGLEHRGSEASPALPGLKLSADQVALVYSTLGLCLCAVLCCFLVAVACFLKKRGDPCSCQPRSRPRQSPAKSSQDHAMEAGSPVSTSPEPVETCSFCFPECRAPTQESAVTPGTPDPTCAGRWGCHTRTTVLQPCPHIPDSGLGIVCVPAQEGGPGA
B3: Chorion-specific transcription factor GCMb (Homo sapiens), O75603 (parent)
chain: MPAAAVQEAVGVCSYGMQLSWDINDPQMPQELALFDQFREWPDGYVRFIYSSDEKKAQRHLSGWAMRNTNNHNGHILKKSCLGVVVCTQACTLPDGSRLQLRPAICDKARLKQQKKACPNCHSALELIPCRGHSGYPVTNFWRLDGNAIFFQAKGVHDHPRPESKSETEARRSAIKRQMASFYQPQKKRIRESEAEENQDSSGHFSNIPPLENPEDFDIVTETSFPIPGQPCPSFPKSDVYKATCDLATFQGDKMPPFQKYSSPRIYLPRPPCSYELANPGYTNSSPYPTLYKDSTSIPNDTDWVHLNTLQCNVNSYSSYERSFDFTNKQHGWKPALGKPSLVERTNHGQFQAMATRPYYNPELPCRYLTTPPPGAPALQTVITTTTKVSYQAYQPPAMKYSDSVREVKSLSSCNYAPEDTGMSVYPEPWGPPVTVTRAASPSGPPPMKIAGDCRAIRPTVAIPHEPVSSRTDEAETWDVCLSGLGSAVSYSDRVGPFFTYNNEDF
B4: Keratin, type II cytoskeletal 6A (Homo sapiens), P02538 (parent)
chain: MASTSTTIRSHSSSRRGFSANSARLPGVSRSGFSSVSVSRSRGSGGLGGACGGAGFGSRSLYGLGGSKRISIGGGSCAISGGYGSRAGGSYGFGGAGSGFGFGGGAGIGFGLGGGAGLAGGFGGPGFPVCPPGGIQEVTVNQSLLTPLNLQIDPTIQRVRAEEREQIKTLNNKFASFIDKVRFLEQQNKVLETKWTLLQEQGTKTVRQNLEPLFEQYINNLRRQLDSIVGERGRLDSELRGMQDLVEDFKNKYEDEINKRTAAENEFVTLKKDVDAAYMNKVELQAKADTLTDEINFLRALYDAELSQMQTHISDTSVVLSMDNNRNLDLDSIIAEVKAQYEEIAQRSRAEAESWYQTKYEELQVTAGRHGDDLRNTKQEIAEINRMIQRLRSEIDHVKKQCANLQAAIADAEQRGEMALKDAKNKLEGLEDALQKAKQDLARLLKEYQELMNVKLALDVEIATYRKLLEGEECRLNGEGVGQVNISVVQSTVSSGYGGASGVGSGLGLGGGSSYSYGSGLGVGGGFSSSSGRAIGGGLSSVGGGSSTIKYTTTSSSSRKSYKH
partner: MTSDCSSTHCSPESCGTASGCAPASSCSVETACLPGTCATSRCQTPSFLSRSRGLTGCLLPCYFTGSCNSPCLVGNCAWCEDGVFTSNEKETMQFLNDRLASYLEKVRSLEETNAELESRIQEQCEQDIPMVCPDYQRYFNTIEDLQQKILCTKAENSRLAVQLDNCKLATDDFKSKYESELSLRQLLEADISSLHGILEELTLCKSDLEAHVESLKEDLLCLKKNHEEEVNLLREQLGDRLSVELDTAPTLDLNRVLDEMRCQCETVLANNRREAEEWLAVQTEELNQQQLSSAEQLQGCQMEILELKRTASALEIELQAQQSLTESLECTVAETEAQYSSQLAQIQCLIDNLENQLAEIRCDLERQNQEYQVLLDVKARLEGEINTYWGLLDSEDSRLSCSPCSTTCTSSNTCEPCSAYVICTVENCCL
B5: Keratin, type II cytoskeletal 6A (Homo sapiens), P02538 (parent)
chain: B4 chain
partner: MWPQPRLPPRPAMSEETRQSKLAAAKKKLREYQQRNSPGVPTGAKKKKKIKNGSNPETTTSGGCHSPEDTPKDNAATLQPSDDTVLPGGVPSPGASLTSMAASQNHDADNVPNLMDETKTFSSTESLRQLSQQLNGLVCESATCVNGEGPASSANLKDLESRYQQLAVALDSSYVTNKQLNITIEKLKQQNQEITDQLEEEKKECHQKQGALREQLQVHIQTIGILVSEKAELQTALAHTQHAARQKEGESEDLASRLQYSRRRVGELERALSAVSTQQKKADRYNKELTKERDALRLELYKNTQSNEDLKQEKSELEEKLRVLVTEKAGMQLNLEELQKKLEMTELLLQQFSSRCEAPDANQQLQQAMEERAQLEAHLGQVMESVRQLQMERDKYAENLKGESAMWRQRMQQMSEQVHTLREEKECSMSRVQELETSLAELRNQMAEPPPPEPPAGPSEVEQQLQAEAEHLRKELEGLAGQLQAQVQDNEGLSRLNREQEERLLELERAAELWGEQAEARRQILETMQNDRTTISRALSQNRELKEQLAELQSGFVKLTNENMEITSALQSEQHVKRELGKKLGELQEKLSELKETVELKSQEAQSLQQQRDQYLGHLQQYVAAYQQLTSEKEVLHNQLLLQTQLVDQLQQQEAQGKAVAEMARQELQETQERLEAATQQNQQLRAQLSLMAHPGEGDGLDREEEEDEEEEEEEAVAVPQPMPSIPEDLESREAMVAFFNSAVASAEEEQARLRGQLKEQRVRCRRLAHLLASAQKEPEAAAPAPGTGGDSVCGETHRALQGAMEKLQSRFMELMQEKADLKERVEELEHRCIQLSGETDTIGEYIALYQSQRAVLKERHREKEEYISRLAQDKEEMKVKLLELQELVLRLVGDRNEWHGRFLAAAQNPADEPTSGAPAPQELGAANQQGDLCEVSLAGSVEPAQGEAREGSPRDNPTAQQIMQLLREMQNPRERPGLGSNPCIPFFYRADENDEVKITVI
B6: Inactive peptidyl-prolyl cis-trans isomerase FKBP6 (Homo sapiens), O75344 (parent)
chain: B1 chain
partner: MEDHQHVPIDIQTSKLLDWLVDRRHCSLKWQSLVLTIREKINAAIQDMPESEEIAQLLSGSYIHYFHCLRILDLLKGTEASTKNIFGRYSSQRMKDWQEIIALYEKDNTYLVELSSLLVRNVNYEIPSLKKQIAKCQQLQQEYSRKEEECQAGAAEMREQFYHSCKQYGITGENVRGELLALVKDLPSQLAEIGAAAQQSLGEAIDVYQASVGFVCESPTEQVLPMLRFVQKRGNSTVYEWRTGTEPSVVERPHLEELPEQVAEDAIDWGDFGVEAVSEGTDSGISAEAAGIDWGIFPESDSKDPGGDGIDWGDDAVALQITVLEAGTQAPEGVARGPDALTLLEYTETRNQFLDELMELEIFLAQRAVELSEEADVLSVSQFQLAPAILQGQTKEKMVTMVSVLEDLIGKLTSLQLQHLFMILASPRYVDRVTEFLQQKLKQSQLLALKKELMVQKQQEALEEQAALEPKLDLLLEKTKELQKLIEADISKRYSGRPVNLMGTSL

The first assay covers variants of B1. The conditions noted are these: with sumo5_human SUMO1P1, G2XKQ0.
As to MGGSALNQGVLEGDDAPGQSLYERLSQRMLDISGDRGVLKDVIREGAGDLVAPDASVLVKYSGYLEHMDRPLDSNYFRKTPRLMKLGEDITLWGMELGLLSMRRGELARFLFKPNYAYGTLGCPPLIPPNTTVLFEIELLDFLDCAESDKFCALSAEQQDQFPLQKVLKVAATEREFGNYLFRQNRFYDAKVRYKRALLLLRRRSAPPEEQHLVEAAKLPVLLNLSFTYLKLDRPTIALCYGEQALIIDQKNAKALFRCGQACLLLTEYQKARDFLVRAQKEQPFNHDINNELKKLASCYRDYVDKEKEMWHRMFAPCGDGSTAGES [F72L], the “effect of a mutation on the interaction” value was “disrupting interaction”.

In the next assay the parent is B2. Particulars: with sgta_human SGTA.
With MSGLGRSRRGGRSRVDQEERFPQGLWTGVAMRSCPEEQYWDPLLGTCMSCKTICNHQSQRTCAAFCRSLSCRKEQGKFYDHLLRDCISCASICGQHPKQCAYFCENKLRSPVNLPPELRRQRSGRVENNSDNSGRYQGLEHRGSEASPALPGLKLSADQVALVYSTLGLCLCAVLCCFLVAVACFLKKRGDPCSCQPRSRPRQSPAKSSQDHAMEAGSPVSTSPEPVETCSFCFPECRAPTQESAVTPGTPDPTCAGRWGCHTRTTVLQPCPHIPDSGLGIVCVPAQEGGPGA [E125R], the “effect of a mutation on the interaction” value is on record as “disrupting interaction”.

Another assay covers variants of B3. Particulars: with rbpms_human RBPMS.
Take MPAAAVQEAVGVCSYGMQLSWDINDPQMPQELALFDQFREWPDGYVRFIYSSDEKKAQRHLSSWAMRNTNNHNGHILKKSCLGVVVCTQACTLPDGSRLQLRPAICDKARLKQQKKACPNCHSALELIPCRGHSGYPVTNFWRLDGNAIFFQAKGVHDHPRPESKSETEARRSAIKRQMASFYQPQKKRIRESEAEENQDSSGHFSNIPPLENPEDFDIVTETSFPIPGQPCPSFPKSDVYKATCDLATFQGDKMPPFQKYSSPRIYLPRPPCSYELANPGYTNSSPYPTLYKDSTSIPNDTDWVHLNTLQCNVNSYSSYERSFDFTNKQHGWKPALGKPSLVERTNHGQFQAMATRPYYNPELPCRYLTTPPPGAPALQTVITTTTKVSYQAYQPPAMKYSDSVREVKSLSSCNYAPEDTGMSVYPEPWGPPVTVTRAASPSGPPPMKIAGDCRAIRPTVAIPHEPVSSRTDEAETWDVCLSGLGSAVSYSDRVGPFFTYNNEDF [G63S]: the “effect of a mutation on the interaction” value was “disrupting interaction”.

Variants of B4 are the subject of the next assay. The conditions noted are these: with KRT40, Q6A162.
As for MASTSTTIRSHSSSRRGFSANSARLPGVSRSGFSSVSVSRSRGSGGLGGACGGAGFGSRSLYGLGGSKRISIGGGSCAISGGYGSRAGGSYGFGGAGSGFGFGGGAGIGFGLGGGAGLAGGFGGPGFPVCPPGGIQEVTVNQSLLTPLNLQIDPTIQRVRAEEREQIKTLNNKFASFIDKVRFLEQQNKVLETKWTLLQEQGTKTVRQNLEPLFEQYINNLRRQLDSIVGERGRLDSELRGMQDLVEDFKNKYEDEINKRTAAENEFVTLKKDVDAAYMNKVELQAKADTLTDEINFLRALYDAELSQMQTHISDTSVVLSMDNNRNLDLDSIIAEVKAQYEEIAQRSRAEAESWYQTKYEELQVTAGRHGDDLRNTKQEIAEINRMIQRLRSEIDHVKKQCANLQAAIADAEQRGEMALKDAKNKLEGLEDALQKAKQDLARLLKEYQELMNVKLALDVESATYRKLLEGEECRLNGEGVGQVNISVVQSTVSSGYGGASGVGSGLGLGGGSSYSYGSGLGVGGGFSSSSGRAIGGGLSSVGGGSSTIKYTTTSSSSRKSYKH [I462S], the “effect of a mutation on the interaction” value is “disrupting interaction”.

Variants of B5 are the subject of another assay. Particulars: with goga2_human GOLGA2, Q08379.
Take MASTSTTIRSHSSSRRGFSANSARLPGVSRSGFSSVSVSRSRGSGGLGGACGGAGFGSRSLYGLGGSKRISIGGGSCAISGGYGSRAGGSYGFGGAGSGFGFGGGAGIGFGLGGGAGLAGGFGGPGFPVCPPGGIQEVTVNQSLLTPLNLQIDPTIQRVRAEEREQIKTLKNKFASFIDKVRFLEQQNKVLETKWTLLQEQGTKTVRQNLEPLFEQYINNLRRQLDSIVGERGRLDSELRGMQDLVEDFKNKYEDEINKRTAAENEFVTLKKDVDAAYMNKVELQAKADTLTDEINFLRALYDAELSQMQTHISDTSVVLSMDNNRNLDLDSIIAEVKAQYEEIAQRSRAEAESWYQTKYEELQVTAGRHGDDLRNTKQEIAEINRMIQRLRSEIDHVKKQCANLQAAIADAEQRGEMALKDAKNKLEGLEDALQKAKQDLARLLKEYQELMNVKLALDVEIATYRKLLEGEECRLNGEGVGQVNISVVQSTVSSGYGGASGVGSGLGLGGGSSYSYGSGLGVGGGFSSSSGRAIGGGLSSVGGGSSTIKYTTTSSSSRKSYKH [N171K]: the “effect of a mutation on the interaction” value was “disrupting interaction”.

A further assay covers variants of B6. Particulars: with ck5p3_human CDK5RAP3, Q96JB5.
In the case of MGGSALNQGVLEGDDAPGQSLYERLSQRMLDISGDRGVLKDVIREGAGDLVAPDASVLVKYSGYLEHMDRPLDSNYFRKTPRLMKLGEDITLWGMELGLLSMRRGELARFLFKPNYAYGTLGCPPLIPPNTTVLFEIELLDFLDCAESDKFCALSAEQQDQFPLQKVLKVAATEREFGNYLFRQNRFYDAKVRYKRALLLLRRRSAPPEEQHLVEAAKLPVLLNLSFTYLKLDRPTIALCYGEQALIIDQKNAKALFRCGQACLLLTEYQKARDFLVRAQKEQPFNHDINNELKKLASCYRDYVDKEKEMWHRMFAPCGDGSTAGES [F72L], the “effect of a mutation on the interaction” value is “disrupting interaction”.
